Data taken from article PMC10960872.

Key:
[1] = target: NanoBiT Gq: Gαq–LgBiT (wild type) co-expressed with Gβ1 and Gγ2, P50148;P62873;P59768; experiment: NanoBiT assay (M3-SmBiT with Gαq–LgBiT, Gβ1, Gγ2), basal; conditions: absence of agonist; parent: est. 78 (WT 1:4, expression-matched; WT 1:1 = 100); read off a plot
[2] = target: NanoBiT Gq: Gαq–LgBiT (wild type) co-expressed with Gβ1 and Gγ2, P50148;P62873;P59768; experiment: NanoBiT assay (M3-SmBiT with Gαq–LgBiT, Gβ1, Gγ2), ACh titration; conditions: titrated concentrations of acetylcholine; parent: est. -0.1 (WT 1:4, expression-matched; WT 1:1 = 0); read off a plot

percent of parent [1] [%RLU] | other: ΔpEC50 [2] | Substance
46 | -0.2 | ssHA-FLAG-M3-SmBiT (wild type), P20309 M3-6A (C-tail KKKRRK to AAAAAA)
50 | -0.3 | ssHA-FLAG-M3-SmBiT (wild type), P20309 M3-GS (C-tail KKKRRK to GSGSGS)
